The Immune Epitope Database (IEDB)

What was measured:
[1] = target: HLA-B*07:02; assay: IEDB peptide-MHC binding, purified MHC/competitive/fluorescence; ≥ and ≤ were set here for values at or beyond the usual limits of such assays
[2] = target: HLA-A*80:01; assay: IEDB peptide-MHC binding, purified MHC/direct/fluorescence; filed as Kd, often an IC50 or EC50 that approximates it; ≥ and ≤ were set here for values at or beyond the usual limits of such assays
[3] = target: HLA-B*57:01; assay: IEDB peptide-MHC binding, purified MHC/competitive/radioactivity; filed as Kd, often an IC50 or EC50 that approximates it; ≥ and ≤ were set here for values at or beyond the usual limits of such assays; conditions: source organism: Dengue virus 1 Brazil/97-11/1997
[4] = target: HLA-A*26:03; assay: IEDB peptide-MHC binding, purified MHC/direct/fluorescence; filed as Kd, often an IC50 or EC50 that approximates it; ≥ and ≤ were set here for values at or beyond the usual limits of such assays; conditions: source organism: Cryptosporidium parvum Iowa II
[5] = target: HLA-A*26:02; assay: as above; conditions: source organism: Geobacillus sp. WCH70
[6] = target: HLA-B*07:02; assay: IEDB peptide-MHC binding, purified MHC/competitive/fluorescence; filed as Kd, often an IC50 or EC50 that approximates it; ≥ and ≤ were set here for values at or beyond the usual limits of such assays
[7] = target: HLA-B*15:01; assay: as above; conditions: source organism: Shigella flexneri 2a str. 301
[8] = target: HLA-B*35:01; assay: as above; conditions: source organism: Shigella flexneri 2a str. 301
[9] = target: HLA-A*01:01; assay: IEDB peptide-MHC binding, purified MHC/direct/fluorescence; filed as Kd, often an IC50 or EC50 that approximates it; ≥ and ≤ were set here for values at or beyond the usual limits of such assays
[10] = target: HLA-A*32:15; assay: IEDB peptide-MHC binding, purified MHC/competitive/fluorescence; filed as Kd, often an IC50 or EC50 that approximates it; ≥ and ≤ were set here for values at or beyond the usual limits of such assays; conditions: source organism: Toxoplasma gondii
[11] = target: HLA-B*15:42; assay: as above
[12] = target: HLA-A*03:01; assay: as above; conditions: source organism: Toxoplasma gondii
[13] = target: HLA-B*45:06; assay: as above
[14] = target: HLA-B*83:01; assay: as above
[15] = target: HLA-A*68:23; assay: as above; conditions: source organism: Toxoplasma gondii
[16] = target: HLA-A*01:01; assay: IEDB peptide-MHC binding, purified MHC/competitive/fluorescence; ≥ and ≤ were set here for values at or beyond the usual limits of such assays
[17] = target: HLA-C*06:02; assay: IEDB peptide-MHC binding, purified MHC/direct/fluorescence; filed as Kd, often an IC50 or EC50 that approximates it; ≥ and ≤ were set here for values at or beyond the usual limits of such assays
[18] = target: HLA-C*12:03; assay: as above
[19] = target: HLA-C*15:02; assay: as above
[20] = target: HLA-C*14:02; assay: as above
[21] = target: HLA-B*48:01; assay: IEDB peptide-MHC binding, purified MHC/competitive/fluorescence; filed as Kd, often an IC50 or EC50 that approximates it; ≥ and ≤ were set here for values at or beyond the usual limits of such assays
[22] = target: HLA-B*40:01; assay: IEDB peptide-MHC binding, purified MHC/direct/fluorescence; filed as Kd, often an IC50 or EC50 that approximates it; ≥ and ≤ were set here for values at or beyond the usual limits of such assays; conditions: source organism: Homo sapiens
[23] = target: HLA-B*27:05; assay: as above; conditions: source organism: Homo sapiens
[24] = target: HLA-B*27:20; assay: IEDB peptide-MHC binding, purified MHC/competitive/fluorescence; filed as Kd, often an IC50 or EC50 that approximates it; ≥ and ≤ were set here for values at or beyond the usual limits of such assays
[25] = target: HLA-C*03:03; assay: IEDB peptide-MHC binding, purified MHC/direct/fluorescence; filed as Kd, often an IC50 or EC50 that approximates it; ≥ and ≤ were set here for values at or beyond the usual limits of such assays
[26] = target: HLA-B*08:01; assay: as above; conditions: source organism: Bacillus anthracis str. Sterne
[27] = target: HLA-B*08:02; assay: as above; conditions: source organism: Bacillus anthracis str. Sterne
[28] = target: HLA-A*02:12; assay: as above; conditions: source organism: dengue virus type 1
[29] = target: HLA-A*02:19; assay: as above; conditions: source organism: dengue virus type 1
[30] = target: HLA-C*08:02; assay: as above
[31] = target: HLA-A*02:11; assay: as above; conditions: source organism: dengue virus type 1
[32] = target: HLA-A*02:17; assay: IEDB peptide-MHC binding, purified MHC/competitive/radioactivity; filed as Kd, often an IC50 or EC50 that approximates it; ≥ and ≤ were set here for values at or beyond the usual limits of such assays; conditions: source organism: Dengue virus 1 Singapore/S275/1990
[33] = target: HLA-A*24:02; assay: as above; conditions: source organism: Dengue virus 1 Brazil/97-11/1997
[34] = target: HLA-A*02:03; assay: as above; conditions: source organism: Dengue virus 1 Brazil/97-11/1997
[35] = target: HLA-C*07:02; assay: IEDB peptide-MHC binding, purified MHC/direct/fluorescence; filed as Kd, often an IC50 or EC50 that approximates it; ≥ and ≤ were set here for values at or beyond the usual limits of such assays; conditions: source organism: Mycobacterium tuberculosis str. Haarlem
[36] = source organism: Zaire ebolavirus
[37] = source organism: dengue virus type 1
[38] = source organism: West Nile virus
[39] = source organism: Toxoplasma gondii
[40] = source organism: Vibrio parahaemolyticus
[41] = source organism: Listeria monocytogenes EGD-e
[42] = source organism: Pan troglodytes
[43] = source organism: Cryptosporidium parvum Iowa II
[44] = source organism: Bacillus anthracis str. A2012
[45] = source organism: Mycobacterium tuberculosis str. Haarlem

APDGIRGFP was tested, and the IC50 [1, 36] was 23400 nM.
ESDPEGALW was tested, and the Kd [2, 37] was no less than 20000 nM and the Kd [3] was 391 nM.
With ETRYSWAIL the Kd [4] was 454 nM.
FTWPWMKLF showed a Kd [5] of 469 nM.
GPCPGDYAF showed an IC50 ([1]; source organism: Sudan ebolavirus) of no less than 722000 nM.
Sequence KPVGWAMSF has a Kd ([6]; source organism: Shigella flexneri 2a str. 301) of 11.9 nM, a Kd [7] of 4000 nM and a Kd [8] of 0.4 nM.
MPRQKIIGPL was tested, and the Kd ([6]; source organism: Influenza A virus (A/Swine/Colorado/23619/99(H3N2))) was 6.6 nM.
MSPHRVPNY showed a Kd [9, 38] of no less than 20000 nM and a Kd [2, 38] of no less than 20000 nM.
Sequence MTMLIKAFK has a Kd [10] of 194 nM, a Kd [11, 39] of no less than 5000 nM and a Kd [12] of 7.7 nM. For the same sequence, the Kd [13, 39] was no less than 5000 nM, the Kd [14, 39] was no less than 5000 nM and the Kd [15] was 4.5 nM.
Sequence MTPGRGLSK has a Kd [9, 40] of no less than 20000 nM and a Kd [2, 40] of no less than 20000 nM.
PDDGSYGEY showed an IC50 [16, 36] of no less than 277000 nM.
With RGDLETLGY the IC50 ([16]; source organism: Vaccinia virus WR) was 9250 nM.
For RMMGKTNPL, the Kd [17, 41] was no less than 20000 nM, the Kd [18, 41] was 156 nM and the Kd [19, 41] was 16 nM. It also gave a Kd [20, 41] of no more than 1 nM and a Kd [21, 41] of 97.4 nM.
For RRHWGGNVL, the Kd [22] was no less than 43000 nM, the Kd [23] was 2300 nM and the Kd [11, 42] was no less than 5000 nM. The Kd [13, 42] was no less than 5000 nM, the Kd [24, 42] was 0.2 nM and the Kd [14, 42] was no less than 5000 nM.
TSDGKEYTY gave an IC50 [16, 36] of 3450 nM.
For WMYNIQPYL, the Kd [18, 43] was 454 nM, the Kd [25, 43] was 83 nM and the Kd [21, 43] was 34.7 nM.
YMKERFTVL gave a Kd [26] of 15 nM, a Kd [17, 44] of 149 nM and a Kd [19, 44] of 1500 nM. For the same sequence, the Kd [20, 44] was 173 nM, the Kd [27] was 282 nM and the Kd [11, 44] was no less than 5000 nM. The Kd [13, 44] was no less than 5000 nM, the Kd [24, 44] was 22.6 nM and the Kd [14, 44] was no less than 5000 nM.
Work on YMPSVVETL yielded a Kd [28] of 9 nM, a Kd [29] of 36 nM and a Kd [30, 37] of no less than 20000 nM. For the same sequence, the Kd [31] was no more than 1 nM, the Kd [32] was 14.6 nM and the Kd [33] was 1010 nM. For the same sequence, the Kd [34] was 15 nM.
YVYPDNLPV was tested, and the Kd [30, 45] was 78 nM, the Kd [35] was 2170 nM and the Kd [25, 45] was 2 nM.
